The nature of one data set: pH stability. It is filed as physicochemical.
A further data set concerns Bacillus subtillis. Nature of the data set: MIC by micro-dilution (BSAC). It is filed as cell-based. (In general: Dilution methods test growth across graded concentrations, often in twofold steps.)
The test system of a further data set is strain 156 biofilm. Put plainly: biofilm formation on peptide-coated polyethylene beads. It is filed as cell-based, Staphylococcus epidermidis. To be noted: beads submerged in semi-pure peptide 2 hours, inoculum 3×10^8 cfu/ml of strain 156, p=0.000.

One may read the MIC as the least concentration at which growth counts as inhibited. A higher MIC goes with weaker potency.

Turning to “peptide NI01: antimicrobial peptide (bacteriocin, SEQ ID NO:3) obtained from a Staphylococcal culture; C terminal sequence QSFEWIYKQIKKLWA (MAAFMKLIQFLATKGQKYVSLAWKHKGTILKWINAGQSFEWIYKQIKKLWA; NOI01 polypeptide)”, in the data set with vero cells, the “cells that looked apoptotic” value was 10-20% and the “damage to vero cells” value is on record as “No significant damage”. Further, in the data set with haemolysis, the haemolysis entry is given as “not haemolytic”. Also, the activity lost entry in “pH stability” (acidic pH 2) is given as “about 5%”. In addition, the activity lost in “pH stability” (alkaline pH 10) came out at 12%. In “pH stability” (between pH 4-8), this substance returned an activity retained of 100%. In the data set on Bacillus subtillis, the minimal inhibitory concentration (MIC) was under 0.125 µg/mL. In the data set on strain 156 biofilm, the “reduction of biofilm on coated versus uncoated polyethylene beads” value is given as 2.85 log units.

For the origin of these results see patent US9428551B2, “Antimicrobial peptides” (priority 2009, dated 2016).
